In patent US6066621A, “Synthetic peptides for the treatment of myasthenia gravis” (Yeda Research and Development Co. Ltd., priority 1995, dated 2000):
Where no end group is shown, it is not given here. The star is where a group is joined. Biotin = O=C1N[C@H]2[C@H](CS[C@H]2CCCCC(=O)*)N1; Ahx = NCCCCCC(=O)O

Experiments:
[1] = target: p259-271 presented by antigen-presenting cells of MG patients (HLA class II) (human)
[2] = target: p195-212 presented by antigen-presenting cells of MG patients (HLA class II) (human)
[3] = test system: peripheral blood lymphocytes (PBL) of myasthenia gravis patients; details: 96 h
Procedure: Peripheral blood lymphocytes (PBL) of myasthenia gravis patients and of the appropriate control donors (2×10^5 cells/well) were assayed in microtiter plates in 0.2 ml enriched medium containing 10% autologous serum, in the presence of different doses of the peptides p195-212 and the analog 207Ala for 96 h, followed by an overnight pulse with 0.5 μCi of ^3 H-thymidine. Cells were harvested and radioactivity determined. Inhibition of the proliferative responses was done by adding different doses of 207Ala into the incubation mixture at the same time as the pathogenic peptide p195-212.

[4] = test system: T cell line TCSJL195-212
Procedure: T cell lines and clones specific to p195-212 were established from lymph node cells of high (SJL) responder mouse strain by the method described by Brocke et al. (1990a), supra, and designated TCSJL195-212 line (Mozes, E. et al. (1991), supra; see also Kirshner et al. (1994), supra).
Cells (10^4 per well) of the T cell Line TCSJL195-212 or TCBALB/c259-271 were incubated in the presence of irradiated syngeneic spleen cells (0.5×10^6), either p195-212 or p259-271 (10 μM) and various concentrations of the dual epitope analogs 207Ala-262Lys or 262Lys-207Ala for 48 h. Thereafter, ^3 H-thymidine was added and 16 h later plates we harvested.

[5] = target: MHC Class II molecules of BALB/c mice (on syngeneic spleen cells used as antigen-presenting cells)
[6] = target: MHC Class II molecules of BALB/c mice (on syngeneic spleen cells used as antigen-presenting cells); remark: listed apart in the source
[7] = target: MHC Class II molecules of BALB/c mice (on syngeneic spleen cells used as antigen-presenting cells); remark: listed apart in the source
[8] = target: MHC class II on human antigen presenting cells
[9] = target: MHC class II of SJL mice (on antigen presenting cells)
[10] = target: MHC class II of SJL mice (on antigen presenting cells); assay: flow cytometry, biotinylated peptide on SJL antigen presenting cells, PE-streptavidin

## peripheral blood lymphocytes (PBL) of myasthenia gravis patients (cells without a defined receptor)
[1]
  proliferative response of PBL, stimulation index (SI) (stimulation index): 4.1
[2]
  proliferative response of PBL, stimulation index (SI) (stimulation index): 6.3

## DTPYLDITYHFVAQRLPL [207Ala]
[3]
  inhibition of proliferative responses of PBL, all three patients: 77-100%
[4]
  inhibition of the proliferative response of the TCSJL195-212 line to p195-212: more than 99%

## VIVKLIPSTSSAV [262Lys analog of p259-271]
[5]
  inhibition of the proliferative response of lymph node cells of p259-271 immunized BALB/c mice to p259-271: < 64.7 % inhibition
[6]
  inhibition of the helper activity of TCBALB/c259-271 (p259-271 specific antibody production): < 80 % inhibition
[7]
  % of inhibition of the p259-271 specific proliferative response of TCBALB/c259-271: < 93 % inhibition
[8]
  % inhibition of the p259-271 induced proliferative response of PBL (three MG patients): 100 % inhibition

## DTPYLDITYHFVAQRLPL [207Ala analog of p195-212]
[9]
  inhibition of the p195-212 specific proliferative response of TCSJL195-212: > 99 % inhibition

## VIVELIPDTSSAV [266Asp analog of p259-271]
[8]
  % inhibition of the p259-271 induced proliferative response of PBL (three MG patients): 85.6 % inhibition

## VIVDLIPSTSSAV [262Asp analog of p259-271]
[8]
  % inhibition of the p259-271 induced proliferative response of PBL (three MG patients): 78 % inhibition

## {Biotin-Ahx}-VIVKLIPSTSSAVDTPYLDITYHFVAQRLPL [biotinylated dual analog 262Lys-207Ala]
[10]
  fold affinity against 207Ala-262Lys: 10 fold
